Target: T1, OB-RY1141F (Homo sapiens, UniProt P48357, Y1141F)
T1 construct: cells transfected with the full-length OB-R constructs; expressed in transfected cells; host or cells: COS-7
T1 sequence (P48357 22-1165 Y1141F): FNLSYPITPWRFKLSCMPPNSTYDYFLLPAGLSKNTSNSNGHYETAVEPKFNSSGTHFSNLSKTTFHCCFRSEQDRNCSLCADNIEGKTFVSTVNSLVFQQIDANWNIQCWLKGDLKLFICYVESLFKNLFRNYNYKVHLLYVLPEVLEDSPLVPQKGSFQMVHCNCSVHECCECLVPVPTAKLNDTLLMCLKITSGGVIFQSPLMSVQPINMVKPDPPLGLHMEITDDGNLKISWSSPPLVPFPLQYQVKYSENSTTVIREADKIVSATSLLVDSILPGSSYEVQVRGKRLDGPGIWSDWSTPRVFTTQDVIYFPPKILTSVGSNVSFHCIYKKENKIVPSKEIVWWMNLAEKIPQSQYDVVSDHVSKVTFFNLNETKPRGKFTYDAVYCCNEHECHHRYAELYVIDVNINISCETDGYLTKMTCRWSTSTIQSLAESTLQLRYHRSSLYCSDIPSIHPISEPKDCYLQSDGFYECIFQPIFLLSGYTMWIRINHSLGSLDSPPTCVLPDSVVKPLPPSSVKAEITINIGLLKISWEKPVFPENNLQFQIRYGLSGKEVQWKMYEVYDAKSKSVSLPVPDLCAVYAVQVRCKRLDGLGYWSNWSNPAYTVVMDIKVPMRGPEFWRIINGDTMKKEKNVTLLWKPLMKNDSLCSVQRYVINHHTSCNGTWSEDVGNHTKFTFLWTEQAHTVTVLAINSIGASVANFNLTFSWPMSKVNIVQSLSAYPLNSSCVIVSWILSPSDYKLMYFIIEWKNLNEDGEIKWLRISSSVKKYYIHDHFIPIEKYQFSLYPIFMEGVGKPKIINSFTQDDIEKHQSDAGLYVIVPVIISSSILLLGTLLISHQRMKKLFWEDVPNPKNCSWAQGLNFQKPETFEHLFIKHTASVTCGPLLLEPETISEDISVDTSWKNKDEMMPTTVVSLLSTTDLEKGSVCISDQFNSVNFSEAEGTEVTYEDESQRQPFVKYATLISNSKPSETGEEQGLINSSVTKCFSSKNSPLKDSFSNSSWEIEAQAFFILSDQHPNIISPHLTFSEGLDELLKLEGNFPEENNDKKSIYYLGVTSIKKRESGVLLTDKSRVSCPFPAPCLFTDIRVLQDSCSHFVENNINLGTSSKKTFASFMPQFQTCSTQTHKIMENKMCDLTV
Assay: Luciferase reporter gene assay (3(G3)-Cy6-LUC), leptin stimulation of COS cells expressing mutant OB-RY1141F
Assay type: cell-based
Details: mutant construct OB-RY1141F, 100 ng/ml leptin for 24 hours
Description: The cytoplasmic domain and full-length human OB-R was cloned by PCR using human fetal liver and adipocyte cDNA (Clontech) and cloned into the expression vectors pCMX and pMT21. Chimeric receptors were constructed by fusing the extracellular domain and transmembrane domain of TrkC (amino acids 1 to 458) to the cytoplasmic domain of OB-R (amino acids 865-1165). A triple myc epitope tag was added at the C-terminus of all OB-R constructs (18). Truncation and point mutant constructs were generated by PCR and the sequences of all constructs were verified. Expression constructs were transfected into COS-7 cells using lipofectamine (GIBCO-BRL); 36-48 hours after transfection, cells were starved for either 2 hour,s for chimeric receptors or overnight for full-length receptors prior to stimulation.
Expression constructs (1 μg) for OB-R, OB-RY1141F, OB-RY986F, OB-RY1078, 1079F, and OB-RY986, 1141F were co-transfected with 1 μg of 3(G3)-Cy6-LUC and 0.1 μg of pCMX.LacZ into COS-7 cells (6-well dishes) using lipofectamine. The day after transfection, media was changed to serum-free OptiMEM (GIBCO-BRL) and then treated with 100 ng/ml murine leptin (PeproTech) or human leptin (R&D Systems) for 24 hours. […] Luciferase and β-galactosidase activities were measured in cell lysates (30) and luciferase activity was normalized to β-galactosidase activity to control for transfection differences. […]

leptin: the product of the obese gene, secreted by adipocytes; ligand of OB-R
induction of luciferase activity: no induction

From patent US20020012949A1, “Assay systems for leptin-enhancing agents” (priority 1997, published 2002)
